In patent US20100204105A1 (ZEALAND PHARMA A S, published 2010):

Key:
[1] = molecular target: human glucagon-like peptide 1 receptor (GLP-1R) (human, UniProt P43220 24-463); assay: cell-based or functional assay
[2] = molecular target: human glucagon receptor (Glucagon-R) (human, UniProt P47871 26-477); assay: cell-based or functional assay
human glucagon receptor (Glucagon-R), sequence (P47871 26-477): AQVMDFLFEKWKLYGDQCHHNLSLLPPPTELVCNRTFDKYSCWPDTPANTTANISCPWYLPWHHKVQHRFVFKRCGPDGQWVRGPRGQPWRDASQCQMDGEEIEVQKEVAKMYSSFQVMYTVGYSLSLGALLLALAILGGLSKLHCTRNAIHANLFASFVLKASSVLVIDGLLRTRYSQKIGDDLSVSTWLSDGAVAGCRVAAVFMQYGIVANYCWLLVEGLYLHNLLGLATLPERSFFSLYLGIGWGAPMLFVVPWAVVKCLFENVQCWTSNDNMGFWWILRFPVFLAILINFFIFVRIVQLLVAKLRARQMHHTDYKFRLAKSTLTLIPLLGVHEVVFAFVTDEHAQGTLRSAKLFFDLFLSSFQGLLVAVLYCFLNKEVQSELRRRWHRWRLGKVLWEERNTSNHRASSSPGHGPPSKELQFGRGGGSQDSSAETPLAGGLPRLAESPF

B1: Compound 3 (H-HSQGTFTSDYSKYLDRARADDFVAWLKST-NH2) (peptide)
peptide: H-HSQGTFTSDYSKYLDRARADDFVAWLKST-NH2
Question: What does the source list for B1?
Answer: EC50, cAMP content in HEK293 cells expressing hGLP-1-R (FlashPlate cAMP kit) [1]: 9.3 µM; EC50, cAMP content in HEK293 cells expressing hGlucagon-R (FlashPlate cAMP kit) [2]: 7.3 µM; EC50, cAMP content in HEK293 cells expressing hGlucagon-R (FlashPlate cAMP kit), re-test [2]: 0.49 nM
